± gives the uncertainty stated by the source.
Test: protein stability index of a GFP-peptide fusion (yeast GPS) (PSI 1-4); higher = more stable; sorted into four equal gates, so the index is relative within each strain
Outline: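 Tiled 17-residue yeast protein peptides were fused downstream of GFP in a plasmid that also expresses Cherry, and the pooled library was carried in yeast. Mid-log cultures in leucine-free medium were sorted into four equal gates by GFP/Cherry fluorescence ratio, and plasmids from each gate were PCR-amplified and Illumina-sequenced, with reads assigned to strains by barcodes. The protein stability index for each peptide was each gate's read frequency times its gate number, summed.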

Sequence	protein stability index (doa10∆)	protein stability index (pdr5∆)	protein stability index (san1∆)	protein stability index (ubr1∆)
MSSTNGNAPATPSSDQN [SOH1]	3.17 ± 0.09	2.75 ± 0.1	3.2 ± 0.058	3.11 ± 0.1
LYGPPGTGKTMLVKAVA [RPT3]		1.17 ± 0.11	1.15 ± 0.21	1.37 ± 0.14
LAVFLFDIYNRDRKLIT [YJL039C/NUP192]	1.98 ± 0.2	1.46 ± 0.13		
CRKCYARLPPRATNCRK [RPL40A]	3.09 ± 0.23	3.71 ± 0.28	3.13 ± 0.14	2.92 ± 0.13
LNFYITNVPKAKKRKTL [SIR3]	1.97 ± 0.12	1.86 ± 0.093	1.63 ± 0.12	1.86 ± 0.071
SLRILAKLSERSNGSVA [YJL039C/NUP192]	2.5 ± 0.048	2.27 ± 0.04	1.93 ± 0.067	2.42 ± 0.043
IASDGSYVNYRHMALLV [RPO21]	1.68 ± 0.055	1.89 ± 0.051	1.35 ± 0.067	1.59 ± 0.038
LFRIFSMSEEFKYVSVR [BRR2]	2.39 ± 0.14	3.18 ± 0.15	2.99 ± 0.18	3.29 ± 0.12
VQGGNAAPSAADIKAVV [RPP2B]	3.01 ± 0.084	3.34 ± 0.07	2.88 ± 0.085	3.23 ± 0.075
RWEMEAFGEFSLEGCVE [FAS2]	3.28 ± 0.17	3.36 ± 0.16	2.98 ± 0.095	2.83 ± 0.14
NGIPLKSKERSSQFVRL [YMR129W/POM152]	2.75 ± 0.15	2.6 ± 0.14	3.22 ± 0.096	2.85 ± 0.075
VYDFYGRHVATCSSDQH [YGL100W/SEH1]	2.75 ± 0.068	2.32 ± 0.06	2.43 ± 0.072	2.2 ± 0.049
SQKTKTIQSDLNLSLHK [SMC2]	2.35 ± 0.056	2.3 ± 0.043	2.19 ± 0.071	2.67 ± 0.03
VANQTSATFLRIVGSEL [RPT2]	2.45 ± 0.12	2.29 ± 0.096	2.15 ± 0.15	2.13 ± 0.082
MEDEILSLGMDFIKFDQ [BRN1]	3.23 ± 0.061	3.35 ± 0.052	3.27 ± 0.041	3.15 ± 0.043
QPQQSTIGGGLFGNKPT [YGR119C/NUP57]	2.75 ± 0.087	2.73 ± 0.15	3.55 ± 0.15	1.38 ± 0.19
SSIDRGFGRCETRRKTT [RET1]	2.41 ± 0.071	2.38 ± 0.12	2.21 ± 0.13	2.52 ± 0.05
MVLFNIYDDWLDRISSY [PRP8]	2.26 ± 0.054	2.47 ± 0.046	2.19 ± 0.075	2.26 ± 0.045
IEIEDEKVSSVLSALEG [RPP2A]	2.88 ± 0.037	2.29 ± 0.034	2.81 ± 0.029	2.449 ± 0.024
KANISLETLEHNGAPHH [RPO21]	3.29 ± 0.16	3.05 ± 0.15	3.19 ± 0.12	

Sequence	protein stability index (doa10∆)	protein stability index (pdr5∆)	protein stability index (san1∆)	protein stability index (ubr1∆)
IPSPLSSTKPPGSVNSA [NUT1]	2.76 ± 0.056	2.84 ± 0.058	2.86 ± 0.076	2.85 ± 0.044
SKFYNMKQPYVFVKKHH [SSN2]	1.58 ± 0.11	1.5 ± 0.11	1.24 ± 0.14	1.28 ± 0.044
QDQYKEGIKVVDIDDPD [SNF2]	2.97 ± 0.16	2.45 ± 0.086	2.13 ± 0.071	2.54 ± 0.073
PHNSKSLGFLQQSNKLH [RPN3]	3.11 ± 0.059	3.07 ± 0.072	3.1 ± 0.053	3.26 ± 0.055
CILYDADESKMAKLNEC [RET1]	2.28 ± 0.062	1.99 ± 0.06	2.32 ± 0.1	1.76 ± 0.055
EEKLKANKEKKKAEKAA [RPL24A]	3.23 ± 0.07	3.33 ± 0.11	3.28 ± 0.043	3.48 ± 0.067
SAGAVFKSSVEMGKTDK [YOR098C/NUP1]	3.5 ± 0.095	3.25 ± 0.1	3.29 ± 0.058	3.47 ± 0.047
IKPKPLWSGKQILSVAI [RPO21]	1.62 ± 0.056	1.53 ± 0.047	1.4 ± 0.073	1.62 ± 0.064
VLRTALVHDGLARGLRE [RPS12]	2.57 ± 0.17	2.79 ± 0.16	2.77 ± 0.096	3.25 ± 0.1
MEDVKIQKEEEPENNTV [SWI3]	3.31 ± 0.11	3.35 ± 0.073	3.41 ± 0.058	3.41 ± 0.057
SLVNSYIIDSPQPSSIN [COB]	1.51 ± 0.085	1.59 ± 0.08	1.64 ± 0.15	1.32 ± 0.081
IKRMAIRNIVEAAAVRD [RPS26A]	1.29 ± 0.069	1.68 ± 0.097	1.83 ± 0.16	1.93 ± 0.055
NNNHKDKKLLRRLLNLY [SWI1]	2.88 ± 0.054	2.93 ± 0.054	2.92 ± 0.058	3.03 ± 0.054
SNDTTAFNDSCVNLSLF [SRB8]	3.07 ± 0.065	2.92 ± 0.069	3.13 ± 0.06	2.34 ± 0.035
FDDNDSGNNYNDINISS [MED2]	3.08 ± 0.037	3.19 ± 0.039	3.05 ± 0.038	3.151 ± 0.028
KSLEDLSCQYDNTVRTS [RPO31]	1.3 ± 0.19	1.31 ± 0.14		
KELEPWDLQLQEKESQI [SMC4]	3.16 ± 0.12	3.22 ± 0.13	3.21 ± 0.12	3.36 ± 0.12
VTLKGAKALESLASCLR [POP1]	3.12 ± 0.073	2.94 ± 0.069	2.54 ± 0.078	2.74 ± 0.07
GDTVRILDTSQSESRQK [SNU114]	2.81 ± 0.051	2.96 ± 0.054	2.77 ± 0.05	2.9 ± 0.04
NADLDVKDELMFSPLVD [RPO21]	3.17 ± 0.047	3.08 ± 0.04	3.15 ± 0.041	3.31 ± 0.034
